Among the data in PMC6612188 are binding values, retold here.

Changes are numbered by the printed parent chain.

Series [1] deals with T1, VraR (unphosphorylated) (Staphylococcus aureus) (UniProt Q7A2Q1).
T1 sequence: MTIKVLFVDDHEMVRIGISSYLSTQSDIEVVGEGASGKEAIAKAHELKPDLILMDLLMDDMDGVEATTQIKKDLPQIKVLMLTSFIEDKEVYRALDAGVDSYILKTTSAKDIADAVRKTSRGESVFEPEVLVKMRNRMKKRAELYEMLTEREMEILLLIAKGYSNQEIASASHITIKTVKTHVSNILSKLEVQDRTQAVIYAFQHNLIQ
The experiment in a line: DNase I footprinting. The following applies: 10 mM Tris pH 7.5, 50 mM KCl, 1 mM DTT, 10 mM MgCl2, 50% glycerol, 20 ng/ul herring sperm DNA; 2 ng amplicon; protein 0-50 uM; temperature not stated.

For series [2], the target named is T2, VraRM13A (unphosphorylated) M13A (Staphylococcus aureus) (UniProt Q7A2Q1).
T2 sequence: T1 sequence with M13A
As to the kind of experiment: DNase I footprinting. The note with it: 10 mM Tris pH 7.5, 50 mM KCl, 1 mM DTT, 10 mM MgCl2, 50% glycerol, 20 ng/ul herring sperm DNA; 2 ng amplicon; protein 0-50 uM; temperature not stated.

For “TGAAATGACGCATTGATTGTGTTCTTAATTATTATAAAACAGTTCCGAAACCAATATGAATAGGCTCCGGAACTAAATGATGTTCATACTTTAGTCTTAGTATATGTTGAACTATTCTTCTTCAATCTTTGTCGTTAAAATCGGACCAAGCTTCGT (double strand) [PvraSR (-121 to +26)]”, the binding result was “binds” in series [1] and “binds more weakly” in series [2].
